# Data published in IntAct's records for PubMed 18273060.
# B1: Growth factor receptor-bound protein 7 (Mus musculus), Q03160 (parent)
# chain: MELDLSPTHLSSSPEDVCPTPATPPETPPPPDNPPPGDVKRSQPLPIPSSRKLREEEFQATSLPSIPNPFPELCSPPSQKPILGGSSGARGLLPRDSSRLCVVKVYSEDGACRSVEVAAGATARHVCEMLVQRAHALSDESWGLVESHPYLALERGLEDHEFVVEVQEAWPVGGDSRFIFRKNFAKYELFKSPPHTLFPEKMVSSCLDAQTGISHEDLIQNFLNAGSFPEIQGFLQLRGSGRGSGRKLWKRFFCFLRRSGLYYSTKGTSKDPRHLQYVADVNESNVYVVTQGRKLYGMPTDFGFCVKPNKLRNGHKGLHIFCSEDEQSRTCWLAAFRLFKYGVQLYKNYQQAQSRHLRLSYLGSPPLRSVSDNTLVAMDFSGHAGRVIDNPREALSAAMEEAQAWRKKTNHRLSLPTTCSGSSLSAAIHRTQPWFHGRISREESQRLIGQQGLVDGVFLVRESQRNPQGFVLSLCHLQKVKHYLILPSEDEGCLYFSMDEGQTRFTDLLQLVEFHQLNRGILPCLLRHCCARVAL
# Variants of: B1
# Details: with elav1_mouse Elavl1, P70372
# elav1_mouse Elavl1, P70372, sequence (P70372 whole entry): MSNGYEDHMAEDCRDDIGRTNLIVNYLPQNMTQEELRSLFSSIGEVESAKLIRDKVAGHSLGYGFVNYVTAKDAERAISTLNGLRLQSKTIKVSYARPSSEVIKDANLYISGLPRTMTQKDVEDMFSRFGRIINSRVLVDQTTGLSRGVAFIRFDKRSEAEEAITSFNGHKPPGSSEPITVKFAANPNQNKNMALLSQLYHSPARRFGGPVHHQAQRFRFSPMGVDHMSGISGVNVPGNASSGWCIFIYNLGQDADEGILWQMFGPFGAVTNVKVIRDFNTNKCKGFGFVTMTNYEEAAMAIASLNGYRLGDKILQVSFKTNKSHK
row,Variant,effect of a mutation on the interaction
1,MELDLSPTHLSSSPEDVCPTPATPPETPPPPDNPPPGDVKRSQPLPIPSSRKLREEEFQATSLPSIPNPFPELCSPPSQKPILGGSSGARGLLPRDSSRLCVVKVYSEDGACRSVEVAAGATARHVCEMLVQRAHALSDESWGLVESHPYLALERGLEDHEFVVEVQEAWPVGGDSRFIFRKNFAKYELFKSPPHTLFPEKMVSSCLDAQTGISHEDLIQNFLNAGSFPEIQGFLQLRGSGRGSGRKLWKRFFCFLRRSGLYYSTKGTSKDPRHLQYVADVNESNVYVVTQGRKLYGMPTDFGFCVKPNKLRNGHKGLHIFCSEDEQSRTCWLAAFRLFKYGVQLYKNYQQAQSRHLRLSYLGSPPLRSVSDNTLVAMDFSGHAGRVIDNPREALSAAMEEAQAWRKKTNHRLSLPTTCSGSSLSAAIHRTQPWFHGRISREESQRLIGQQGLVDGVFLVRESQRNPQGFVLSLCHLQKVKHYLILPSEDEGCLFFSMDEGQTRFTDLLQLVEFHQLNRGILPCLLRHCCARVAL [Y495F],increasing interaction
